Results from publication PMC7064779.

Target: LecB-biotin (Pseudomonas aeruginosa lectin LecB, biotinylated) (Pseudomonas aeruginosa) (UniProt Q9HYN5)
Test: pull-down; LecB-biotin applied basolaterally to polarized filter-grown MDCK cells; cells lysed; LecB-biotin-receptor complexes precipitated with streptavidin beads; β1-integrin probed by Western blot in precipitate and supernatant

In the case of “β1-integrin (glycosylated, endogenous in MDCK cells) (receptor)”, the percent of total β1-integrin extracted was 75%.
